Measurements taken from PMC6563103 (Hepatology (Baltimore, Md.), 2019).

Target: T1, glutathione S-transferase (GST)-CGI-58 (UniProt Q8WTS1 1-349)
T1 sequence (looked up): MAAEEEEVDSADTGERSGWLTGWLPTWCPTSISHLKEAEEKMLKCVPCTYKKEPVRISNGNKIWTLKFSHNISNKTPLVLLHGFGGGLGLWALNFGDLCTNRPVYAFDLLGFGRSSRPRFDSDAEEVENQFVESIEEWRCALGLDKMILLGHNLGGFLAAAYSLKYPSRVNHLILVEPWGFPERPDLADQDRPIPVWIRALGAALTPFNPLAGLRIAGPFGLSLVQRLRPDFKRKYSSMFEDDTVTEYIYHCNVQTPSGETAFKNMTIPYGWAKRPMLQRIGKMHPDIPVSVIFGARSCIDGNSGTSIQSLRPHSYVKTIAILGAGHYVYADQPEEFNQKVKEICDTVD
Test: pull-down

- molar ratio of PNPLA3 to CGI-58 in the precipitates: ~0.14 mol PNPLA3 per mol CGI-58
B1: recombinant PNPLA3(148M), deca-histidine and Flag fusion protein (enzyme, UniProt Q9NST1 1-481, looked up)
chain: MYDAERGWSLSFAGCGFLGFYHVGATRCLSEHAPHLLRDARMLFGASAGALHCVGVLSGIPLEQTLQVLSDLVRKARSRNIGIFHPSFNLSKFLRQGLCKCLPANVHQLISGKIGISLTRVSDGENVLVSDFRSKDEVVDALVCSCFMPFYSGLIPPSFRGVRYVDGGVSDNVPFIDAKTTITVSPFYGEYDICPKVKSTNFLHVDITKLSLRLCTGNLYLLSRAFVPPDLKVLGEICLRGYLDAFRFLEEKGICNRPQPGLKSSSEGMDPEVAMPSWANMSLDSSPESAALAVRLEGDELLDHLRLSILPWDESILDTLSPRLATALSEEMKDKGGYMSKICNLLPIRIMSYVMLPCTLPVESAIAIVQRLVTWLPDMPDDVLWLQWVTSQVFTRVLMCLLPASRSQMPVSSQQASPCTPEQDWPCWTPCSPKGCPAETKAEATPRSILRSSLNFFLGNKVPAGAEGLSTFPSFSLEKSL
